Results taken from patent US7344856.
“Also recorded” adds a separate entry of the source.

Key:
Dynorphine A, P01213 = target: T1, Dynorphine A, P01213
T1 chain: YGGFLRRIRPKLKWDNQ

[1] = target: fusion protein PRhANP, P01160
[2] = target: fusion protein PRhCT, P01258
[3] = target: fusion protein expressed by pG117S4HompRHKR

Sequence of fusion protein PRhCT, P01258 (P01258 other isoform, or with tags, fused parts or gaps): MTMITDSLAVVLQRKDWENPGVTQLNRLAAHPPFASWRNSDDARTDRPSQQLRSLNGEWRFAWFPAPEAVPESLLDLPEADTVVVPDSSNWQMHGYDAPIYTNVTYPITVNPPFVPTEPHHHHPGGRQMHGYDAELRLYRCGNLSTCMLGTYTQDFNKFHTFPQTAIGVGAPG
Sequence of fusion protein PRhANP, P01160 (P01160 other isoform, or with tags, fused parts or gaps): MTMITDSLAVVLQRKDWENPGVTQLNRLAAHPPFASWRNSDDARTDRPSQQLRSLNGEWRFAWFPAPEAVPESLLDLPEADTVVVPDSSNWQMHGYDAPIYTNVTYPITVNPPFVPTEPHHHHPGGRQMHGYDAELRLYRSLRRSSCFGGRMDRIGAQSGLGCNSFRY

B1: E. coli OmpT protease (purified OmpT protease specimen) (protein)
chain: STETLSFTPDNINADISLGTLSGKTKERVYLAEEGGRKVSQLDWKFNNAAIIKGAINWDLMPQISIGAAGWTTLGSRGGNMVDQDWMDSSNPGTWTDESRHPDTQLNYANEFDLNIKGWLLNEPNYRLGLMAGYQESRYSFTARGGSYIYSSEEGFRDDIGSFPNGERAIGYKQRFKMPYIGLTGSYRYEDFELGGTFKYSGWVESSDNDEHYDPGKRITYRSKVKDQNYYSVAVNAGYYVTPNAKVYVEGAWNRVTNKKGNTSLYDHNNNTSDYSKNGAGIENYNFITTAGLKYTF
OmpT protease activity (cleavage of Dynorphine A, HPLC) (Dynorphine A, P01213): 40 U/ml | cleavage by OmpT protease (SDS-PAGE) (fusion protein PKA): PKA and PKS forming no basic amino acid pair were cleaved by OmpT protease | cleavage by OmpT protease (SDS-PAGE) (fusion protein PKD): PKD and PKE were not cleaved by OmpT protease | cleavage by OmpT protease (SDS-PAGE) (fusion protein PKE): PKD and PKE were not cleaved by OmpT protease | cleavage by OmpT protease (SDS-PAGE) (fusion protein PKK): PKK and PKR employed as positive controls were cleaved by OmpT protease | cleavage by OmpT protease (SDS-PAGE) (fusion protein PKR): PKK and PKR employed as positive controls were cleaved by OmpT protease | cleavage by OmpT protease (SDS-PAGE) (fusion protein PKS): PKA and PKS forming no basic amino acid pair were cleaved by OmpT protease | cleavage efficiency by OmpT protease (fusion protein PRA): Alanine and serine were employed because they showed relatively high cleavage efficiency in Example 3; also recorded: Alanine and cysteine were selected because they provided relatively high cleavage efficiency in Example 3 | cleavage efficiency by OmpT protease (fusion protein PRC): Alanine and cysteine were selected because they provided relatively high cleavage efficiency in Example 3 | cleavage by OmpT protease (SDS-PAGE) (fusion protein PRD): In PRD and PRE, no cleavage by OmpT protease was observed | cleavage by OmpT protease (SDS-PAGE) (fusion protein PRE): In PRD and PRE, no cleavage by OmpT protease was observed | Relative amount of 4.9 kDa peptide (HPLC; 25 C, 60 min, pH 7.0) (relative to PRR = 100) (fusion protein PRR): 100 | Relative amount of 4.9 kDa peptide (HPLC; OmpT 0.1 U/ml, 25 C, 60 min) (relative to PRR = 100) (fusion protein PRR): 100 | Relative amount of 4.9 kDa peptide (HPLC; OmpT 2.0 U/ml, 25 C, 60 min) (relative to PRR = 100) (fusion protein PRR): 100 | cleavage by OmpT protease (SDS-PAGE) (fusion protein PRR): the cleavage by OmpT protease was confirmed in the fusion proteins other than PRR-1A | cleavage by OmpT protease (SDS-PAGE; OmpT 0.1 U/ml) (fusion protein PRR): the cleavage by OmpT protease was observed in all of the fusion proteins | cleavage by OmpT protease (SDS-PAGE; OmpT 2.0 U/ml) (fusion protein PRR): the cleavage by OmpT protease was observed in all of the fusion proteins | Relative amount of 4.9 kDa peptide (HPLC; 25 C, 60 min, pH 7.0) (relative to PRR = 100) (fusion protein PRR-10A): 160 | cleavage by OmpT protease (SDS-PAGE) (fusion protein PRR-10A): the cleavage by OmpT protease was confirmed in the fusion proteins other than PRR-1A | cleavage by OmpT protease (SDS-PAGE) (fusion protein PRR-1A): The PRR-1A was not cleaved by OmpT protease | Relative amount of 4.9 kDa peptide (HPLC; 25 C, 60 min, pH 7.0) (relative to PRR = 100) (fusion protein PRR-2A): 150 | cleavage by OmpT protease (SDS-PAGE) (fusion protein PRR-2A): the cleavage by OmpT protease was confirmed in the fusion proteins other than PRR-1A | Relative amount of 4.9 kDa peptide (HPLC; 25 C, 60 min, pH 7.0) (relative to PRR = 100) (fusion protein PRR-3A): 44 | cleavage by OmpT protease (SDS-PAGE) (fusion protein PRR-3A): the cleavage by OmpT protease was confirmed in the fusion proteins other than PRR-1A | Relative amount of 4.9 kDa peptide (HPLC; 25 C, 60 min, pH 7.0) (relative to PRR = 100) (fusion protein PRR-4A): 24 | Relative amount of 4.9 kDa peptide (HPLC; OmpT 2.0 U/ml, 25 C, 60 min) (relative to PRR = 100) (fusion protein PRR-4A): 49 | cleavage by OmpT protease (SDS-PAGE) (fusion protein PRR-4A): the cleavage by OmpT protease was confirmed in the fusion proteins other than PRR-1A | cleavage by OmpT protease (SDS-PAGE; OmpT 2.0 U/ml) (fusion protein PRR-4A): the cleavage by OmpT protease was observed in all of the fusion proteins | Relative amount of 4.9 kDa peptide (HPLC; OmpT 2.0 U/ml, 25 C, 60 min) (relative to PRR = 100) (fusion protein PRR-4D): 2.8 | cleavage by OmpT protease (SDS-PAGE; OmpT 2.0 U/ml) (fusion protein PRR-4D): the cleavage by OmpT protease was observed in all of the fusion proteins | Relative amount of 4.9 kDa peptide (HPLC; OmpT 2.0 U/ml, 25 C, 60 min) (relative to PRR = 100) (fusion protein PRR-4E): 2 | cleavage by OmpT protease (SDS-PAGE; OmpT 2.0 U/ml) (fusion protein PRR-4E): the cleavage by OmpT protease was observed in all of the fusion proteins | Relative amount of 4.9 kDa peptide (HPLC; OmpT 2.0 U/ml, 25 C, 60 min) (relative to PRR = 100) (fusion protein PRR-4K): 96 | cleavage by OmpT protease (SDS-PAGE; OmpT 2.0 U/ml) (fusion protein PRR-4K): the cleavage by OmpT protease was observed in all of the fusion proteins | Relative amount of 4.9 kDa peptide (HPLC; OmpT 2.0 U/ml, 25 C, 60 min) (relative to PRR = 100) (fusion protein PRR-4N): 48 | cleavage by OmpT protease (SDS-PAGE; OmpT 2.0 U/ml) (fusion protein PRR-4N): the cleavage by OmpT protease was observed in all of the fusion proteins | Relative amount of 4.9 kDa peptide (HPLC; OmpT 2.0 U/ml, 25 C, 60 min) (relative to PRR = 100) (fusion protein PRR-4Q): 23 | cleavage by OmpT protease (SDS-PAGE; OmpT 2.0 U/ml) (fusion protein PRR-4Q): the cleavage by OmpT protease was observed in all of the fusion proteins | Relative amount of 4.9 kDa peptide (HPLC; 25 C, 60 min, pH 7.0) (relative to PRR = 100) (fusion protein PRR-5A): 89 | cleavage by OmpT protease (SDS-PAGE) (fusion protein PRR-5A): the cleavage by OmpT protease was confirmed in the fusion proteins other than PRR-1A | Relative amount of 4.9 kDa peptide (HPLC; 25 C, 60 min, pH 7.0) (relative to PRR = 100) (fusion protein PRR-6A): 330 | Relative amount of 4.9 kDa peptide (HPLC; OmpT 0.1 U/ml, 25 C, 60 min) (relative to PRR = 100) (fusion protein PRR-6A): 310 | cleavage by OmpT protease (SDS-PAGE) (fusion protein PRR-6A): the cleavage by OmpT protease was confirmed in the fusion proteins other than PRR-1A | cleavage by OmpT protease (SDS-PAGE; OmpT 0.1 U/ml) (fusion protein PRR-6A): the cleavage by OmpT protease was observed in all of the fusion proteins | Relative amount of 4.9 kDa peptide (HPLC; OmpT 0.1 U/ml, 25 C, 60 min) (relative to PRR = 100) (fusion protein PRR-6D): 110 | cleavage by OmpT protease (SDS-PAGE; OmpT 0.1 U/ml) (fusion protein PRR-6D): the cleavage by OmpT protease was observed in all of the fusion proteins | Relative amount of 4.9 kDa peptide (HPLC; OmpT 0.1 U/ml, 25 C, 60 min) (relative to PRR = 100) (fusion protein PRR-6K): 1400 | cleavage by OmpT protease (SDS-PAGE; OmpT 0.1 U/ml) (fusion protein PRR-6K): the cleavage by OmpT protease was observed in all of the fusion proteins | Relative amount of 4.9 kDa peptide (HPLC; OmpT 0.1 U/ml, 25 C, 60 min) (relative to PRR = 100) (fusion protein PRR-6N): 430 | cleavage by OmpT protease (SDS-PAGE; OmpT 0.1 U/ml) (fusion protein PRR-6N): the cleavage by OmpT protease was observed in all of the fusion proteins | Relative amount of 4.9 kDa peptide (HPLC; OmpT 0.1 U/ml, 25 C, 60 min) (relative to PRR = 100) (fusion protein PRR-6Q): 390 | cleavage by OmpT protease (SDS-PAGE; OmpT 0.1 U/ml) (fusion protein PRR-6Q): the cleavage by OmpT protease was observed in all of the fusion proteins | Relative amount of 4.9 kDa peptide (HPLC; OmpT 0.1 U/ml, 25 C, 60 min) (relative to PRR = 100) (fusion protein PRR-6R): 1000 | cleavage by OmpT protease (SDS-PAGE; OmpT 0.1 U/ml) (fusion protein PRR-6R): the cleavage by OmpT protease was observed in all of the fusion proteins | Relative amount of 4.9 kDa peptide (HPLC; 25 C, 60 min, pH 7.0) (relative to PRR = 100) (fusion protein PRR-8A): 200 | cleavage by OmpT protease (SDS-PAGE) (fusion protein PRR-8A): the cleavage by OmpT protease was confirmed in the fusion proteins other than PRR-1A | Relative amount of 4.9 kDa peptide (HPLC; 25 C, 60 min, pH 7.0) (relative to PRR = 100) (fusion protein PRR-9A): 160 | cleavage by OmpT protease (SDS-PAGE) (fusion protein PRR-9A): the cleavage by OmpT protease was confirmed in the fusion proteins other than PRR-1A | cleavage efficiency by OmpT protease (fusion protein PRS): Alanine and serine were employed because they showed relatively high cleavage efficiency in Example 3 | cleavage by OmpT protease (SDS-PAGE) [1]: PRhANP was cleaved by OmpT protease | cleavage by OmpT protease (SDS-PAGE) [2]: PRhCT was not cleaved thereby | cleavage at sites inside the α-hANP moiety (fusion protein RAhANP): arginine-arginine alone was slightly cleaved, among the four sites (arginine-arginine, arginine-methionine, arginine-isoleucine and arginine-tyrosine) existing in α-hANP molecule ... while the other bonds were scarcely cleaved | cleavage by OmpT protease (SDS-PAGE) (fusion protein RAhANP): cleavage by OmpT protease was observed in RRhANP, RAhANP and RChANP | cleavage at sites inside the α-hANP moiety (fusion protein RChANP): arginine-arginine alone was slightly cleaved, among the four sites (arginine-arginine, arginine-methionine, arginine-isoleucine and arginine-tyrosine) existing in α-hANP molecule ... while the other bonds were scarcely cleaved | cleavage by OmpT protease (SDS-PAGE) (fusion protein RChANP): cleavage by OmpT protease was observed in RRhANP, RAhANP and RChANP | cleavage at sites inside the α-hANP moiety (fusion protein RRhANP): arginine-arginine alone was slightly cleaved, among the four sites (arginine-arginine, arginine-methionine, arginine-isoleucine and arginine-tyrosine) existing in α-hANP molecule ... while the other bonds were scarcely cleaved | cleavage by OmpT protease (SDS-PAGE) (fusion protein RRhANP): cleavage by OmpT protease was observed in RRhANP, RAhANP and RChANP | cleavage by OmpT protease (SDS-PAGE) (fusion protein RShANP): it was confirmed that RShANP could be cleaved by OmpT protease | relative amount of the released α-hANP (HPLC peak at 4.7 minutes; OmpT 2.0 U/ml, 25 C, 90 min) (fusion protein RShANPR): 2.2 times as much as that of RShANP | cleavage by OmpT protease (preliminary experiments) [3]: this fusion protein is cleaved at two sites when treated with OmpT protease
